Experimental data from IntAct's records for PubMed 19274086.

B1: Serine/threonine-protein kinase STK11 (Mus musculus), Q9WTK7 (parent)
chain: MDVADPEPLGLFSEGELMSVGMDTFIHRIDSTEVIYQPRRKRAKLIGKYLMGDLLGEGSYGKVKEVLDSETLCRRAVKILKKKKLRRIPNGEANVKKEIQLLRRLRHRNVIQLVDVLYNEEKQKMYMVMEYCVCGMQEMLDSVPEKRFPVCQAHGYFRQLIDGLEYLHSQGIVHKDIKPGNLLLTTNGTLKISDLGVAEALHPFAVDDTCRTSQGSPAFQPPEIANGLDTFSGFKVDIWSAGVTLYNITTGLYPFEGDNIYKLFENIGRGDFTIPCDCGPPLSDLLRGMLEYEPAKRFSIRQIRQHSWFRKKHPLAEALVPIPPSPDTKDRWRSMTVVPYLEDLHGRAEEEEEEDLFDIEDGIIYTQDFTVPGQVLEEEVGQNGQSHSLPKAVCVNGTEPQLSSKVKPEGRPGTANPARKVCSSNKIRRLSACKQQ

Variants of: B1
Settings: with aapk2_human PRKAA2, P54646
Chain of aapk2_human PRKAA2, P54646 (P54646 whole entry, looked up): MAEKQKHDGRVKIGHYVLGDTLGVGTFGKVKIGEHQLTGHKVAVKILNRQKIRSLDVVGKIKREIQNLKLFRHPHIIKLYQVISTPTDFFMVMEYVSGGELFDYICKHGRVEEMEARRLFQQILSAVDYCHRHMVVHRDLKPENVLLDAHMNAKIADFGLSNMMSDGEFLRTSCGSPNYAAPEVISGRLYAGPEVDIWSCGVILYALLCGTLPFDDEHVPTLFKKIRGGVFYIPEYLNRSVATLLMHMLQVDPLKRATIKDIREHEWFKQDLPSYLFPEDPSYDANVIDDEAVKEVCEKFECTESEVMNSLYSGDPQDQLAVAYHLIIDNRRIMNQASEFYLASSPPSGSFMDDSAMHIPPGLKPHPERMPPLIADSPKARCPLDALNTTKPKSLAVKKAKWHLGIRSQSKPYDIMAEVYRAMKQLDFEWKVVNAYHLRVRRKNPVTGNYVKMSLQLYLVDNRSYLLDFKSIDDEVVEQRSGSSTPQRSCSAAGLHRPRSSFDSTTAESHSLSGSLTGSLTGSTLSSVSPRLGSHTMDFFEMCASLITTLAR

Row | Variant | effect of a mutation on the interaction
1 | S431A | decreasing interaction strength
2 | S431D | decreasing interaction strength
3 | D194A | disrupting interaction strength
